Measured values reported in the DeepSol protein solubility set.

assay: soluble on expression in E. coli; label from the status in PepcDB or PDB records

| Sequence | soluble on expression in E. coli |
| --- | --- |
| MSLKNQLGQLALEQAKTFGGKLEVQPKVDIKTKHDLSIAYTPGVASVSSAIAKDKTLAYDLTTKKNTVAVISDGTAVLGLGDIGPEAAMPVMEGKAALFKAFAGVDAIPIVLDTKDTEEIISIVKALAPTFGGINLEDISAPRCFEIEQRLIKECHIPVFHDDQHGTAIVVLAAIFNSLKLLKKSLDEVSIVVNGGGSAGLSITRKLLAAGATKVTVVDKFGIINEQEAAQLAPHHLDIAKVTNREFKSGTLEDALEGADIFIGVSAPGVLKAEWISKMAARPVIFAMANPIPEIYPDEALEAGAYIVGTGRSDFPNQINNVLAFPGIFRGALDARAKTITVEMQIAAAKGIASLVPDDALSTTNIIPDAFKEGVAEIVAKSVRSVVLKSEGHHHHHH | soluble |
| MSLKNTTIADVAAAADVSVTTVSRYLNGNYQKMSAATKQRIKETIATLHYAPKASARKMRQDHSQLIGVVVGDIANVFSSLLFKGIYDVLQPAGYDVLLMNANNTATTEHGELTRLAAQQVDGIILQPSAATAAAYAGLTIPTIIVDRQLPNSPLAQVLSSNFDASYQLGQHLREQGYRRLITVGRAVAPHTAQTDRLAGLTATGLSVIHLDMTSHGAPWLTQQLRQYQQAPDKPVIISLMGPLLFEILASLKAAHLHFPADVGLVSFDDWQWSQYVNDGIYLLQQQPALMGQLAATTLLHQLSTTPTTMTQYVPVAPVVKPSLEGHHHHHH | not soluble |
| MSLKQKLIKKAQELRQHGFTTGEIADELNVSMDTARWLTLQKPAEEKPEAPVDFFINWKSLGGNSTRLRYVSGALSDMALSHGEAEVILGIAVSGIPFATMMADFLEDMSGVETSLAVYHPHKHRKEKDDGEGAISTNFGSVEGKKVVIVDDVITSGKTVKEVIHAVKDHGGEPIAVTVLIDKSGLSEIEEVPIESLIKVGRLEGHHHHHH | soluble |
| MSLKQSHIRNFAIIAHIDHGKSTLADQIMSLTQTVSAREQHAQLLDDMTVEQAHGVTVKARTVRNYYQADDGQEYEYNLIDTPGHVDFNYEVAKSLAATEGAILLVDATQGVQAQTIANYRIAKQRQLTLIPVLNKVDLPSADIDAALAQLNDLDSAFTPEQVLQISAKTGQGVPAVLEAIKQRLPAPQGDLHQPLKALVFDSLYDPYQGVIAYVRLIDGQLKSQQALCLMQGQQDFNGKAIGVFAPQMHPQESLSAGDVGYVVTGIKDPRKVRVGDTLTSVATPTQRPLAGYQPAKSMVFAGLYPKNNDYPALKEAVQKLNLNDPSFTYVEERSEALGVGFRCGFLGTFHLQIIRERLHDEYGVDVLTTAPNVTYHVTLTNGQQVIVNNPVQFPAFSLIKEVTEPFMKAEITMPADNLNAVLKLAEQHKGTLIDLANSGDLIVASLKIPLSEIAYHFFSELKSVSHGFASLSTAFMANEVSDLVKVEVDINEGHHHHHH | soluble |
| MSLKRVSEMKFCFCGEKKDSRVKPLRVAIIGAGPAGLSAACSLACDGFDVHVYDKMPEPGGMVAFGIPEWRIPISKVRQAVKEIEELGVVFHMRTKVVYDSPKELGDEFAERFVSLEKLMKEYDAILIATGAWRPRILDIPGKELKGVENALQLLLRINLARIGYLPQTKMPSFEGKRVVVIGAGYTAVDVAKEAKLLGAKSVTIAYRRSLQDSYAKNEFKKLIKEGVKFLEYVTPVRIFGDENVREVEFAKTKVVRGSVITTEEKRTIPADVIIFAIGQIPTNPIKEVLCSNEDILKNAGIFFAGDVISPRNIGTAIREGRKVAEEIKAWLTEHAFLNIRLSYPVSLRDISKSATEGHHHHHH | soluble |
| MSLKSELPPVQVALDLVDLPRAIEIAKEAVAGGVTWVEAGTPLIKSEGMNAIRELRKNFPTLTIVADMKTMDAGSTEVEMAAKAGANVILILGVGPDSMIIDAVKAGKKYGVLVGTDLIATEDPIKRAVELEEMGVDIINIHVGLDQQVLNVDPVELVKRVSENCKKAKIAAAGGLNSETAVKAYEAGADIIIAGGTLYKSADPEQTARDIIKGLKTGKPVKTDKFKKFNESELVSAFNVVSTSNISDAMHRTGEMKGLKPVWNSEKPLKFAGPAVTVRTYSGDWSKPVSAIDDCEAGNVLVIDNCSSEIACWGGLATLSCETKGVVAIVIDGAVRDVEEILKIGIPVFARSITPTAGEPKGFGEINAVIDCAGRTVEPGDWIVGDENGIIVVPKNEAMEIANRAIDVKEREDRVKEEITRGTTLAKTIRLKDWELKEGHHHHHH | soluble |
| MSLKTFLESLKFPVQEVNKKSSGEKGPGRPPYWEMVFYWTRKPLVGARSVIAGALLPENVDENLFKAAVRLSSPTPHRENPQIPAEFAKYFEGKKLLDPFAGFGSIPLEGLRLGLDVTAVELLPTTYIFLKAVLEYPKKFGKSLVKDVERWGEWITEQLKNDPEIRELYDDDVAVYIGTWEIRCPHCGRWTPAIGNFWLARVKEGHHHHHH | soluble |
| MSLKTHTLPLLLSCTLFLIGACTSMPPEIRNFSAVDIPYQPVSQNAETYKDAPVRWGGTVIEVENETDFSLMQVLFHPLDRSGYPETRKPGEGRFAVEINEFLDPAIYTKGVEVTVIGTVKGNIERTIGNKTIHIPLITAKTIHLWPQAYREDNLYRYGPYPGYYGYGYPFFYNGYYRPYRFWWEGHHHHHH | not soluble |
| MSLKVGLKLLQTPKESMLFNIDSYKIIGIGISRGNEKYMKSTICVARNIFTNGILVGSFEGILGGRTARLCSYKFVDYFLNKVSNKVVQESIEESLISTFQRLNEKIKEKNLNDVSSGLVYVFYNKILYFAQCGSIKSYIISNSNIKEIGFDHCLSNNEMKKKIMQKGGLVDNNNMLNGVINVCKCIGESNYHNLLNTTPDITKIEYDDDFKFVLTASKSVWDVIDQNELQSIVINSAHIQPPGIANLIRNIALERNCKGNISVTILSLDSEGHHHHHH | soluble |
| MSLKYKRIVFKVGTSSITHSDGSLSRGKIQTITCQLAALHHAGHELVLVSSGAVAAGFGALGFKKRPVKIADKQASAAVGQGLLMEEYTANLSSDGIVSAQILLSRADFADKRRYQNAGGALSVLLQRRAVPIINENDTVSVEELKIGDNDTLSAQVAAMIQADLLVLLTDIDGLYTGNPNSNPDAVRLDKIEHINHEIIEMAGGSGSANGTGGMLTKIKAATIAAESGVPVYICSSLKPDALAEAAEHQADGSFFVPRAKGLRTQKQWLAFYSESRGSVYVDEGAEHALSEQGKSLLMSGIAGIEGHFSRMDTVTVYSKATKQPLGKGRVLFGSAAAEDLLKSRKAKGVFIHRDDWISITPEIRLLLTEFEGHHHHHH | soluble |
| MSLLAQLDQKIAANGGLIVSCQPVPDSPLDKPEIVAAMALAAEQAGAVAIRIEGVANLQATRAVVSVPIIGIVKRDLEDSPVRITAYIEDVDALAQAGADIIAIDGTDRPRPVPVETLLARIHHHGLLAMTDCSTPEDGLACQKLGAEIIGTTLSGYTTPETPEEPDLALVKTLSEAGCRVIAEGRYNTPAQAADAMRHGAWAVTVGSAITRLEHICQWYNTAMKKAVL | not soluble |
| MSLLDIIFPPNNNDDDFYGQHFSLIDSIIVKVAQDSNLSQSLRVYQYLYSWRLFGCMVAVVNNNKTLELGDKRGAIEALYEFITRFRIENPTGDVERKVKLKILEIYMIILNLLKSFENNQDQWFLKTNSYKETTTTRRREGHHHHHH | soluble |
| MSLLEKDINLKIFKGNLIFTKTSDKFTIMKDSYIVVIDGKIASVSSNLPDKYKGNPIIDFRNNIIIPGMNDLHAHASQYKNLGIGMDKELLPWLNNYTFPEEAKFLNVDYAKKTYGRLIKDLIKNGTTRVALFATLHKDSTIELFNMLIKSGIGAYVGKVNMDYNCPDYLTENYITSLNDTEEIILKYKDKSNIVKPIITPRFVPSCSNELMDGLGKLSYKYRLPVQSHLSENLDEIAVVKSLHKKSNFYGEVYDKFGLFGNTPTLMAHCIHSSKEEINLIKRNNVTIVHCPTSNFNLGSGMMPVRKYLNLGINVVLGSDISAGHTCSLFKVIAYAIQNSKIKWQESGKKDMFLSTSEAFYMATKKGGSFFGKVGSFEEGYDFDALVINDSNLYPEDYDLTERLERFIYLGDDRNIMKRYVCGNEIFGPKFEGHHHHHH | soluble |
| MSLLEVKNLRIEYPSRHGVHAAVKSLTLDIQRGEIVGVVGESGAGKSTVGNAVIDLLSPPGTIAGGEVYLNGEKISGLSPQAMREVRGSKIGFIFQDPMTSLNPLFTVEHQLTETIHANMQVSAEEAYQRALSLMKQVGIPQPENRLKQYPHQFSGGMRQRVVIAIALAGEPDLIIADEPTTALDVSIQDQILNLIRELCKKNNVGCMLVTHDMGVVSNVTDRVAVMYRGDLVEFGPTAKVLGTPEHPYTRSLISAVPRSDRKLDRFPLVSYIEEAKELKPLDVKSHWLGQSQDHRKYTGPLLKVENVNLRFVTKDSLFESRREYVQASNNVSFAVHEGETFGLVGESGSGKSTIARVIAGLYQPNAGRVTFEGIDLTALKSEHERRPLRRQMQMVFQNPYTSMNPRMKIFDIIAEPIRFHKLTRSESETRQIVNDLLEHVGLGKMAGLKYPHEFSGGQRQRISIARALATRPRLLICDEPTSALDVSVQAQILNLLKDLQDELNLTMLFISHDLPVIRQMCDRVGVMQMGTLLEVAPTEQLFTDPQHEYSKKLISLMPEFTGLRESTTAA | not soluble |
| MSLLFDQGHAYQPLAEVLRPQTLTDYIGQQHILGPGKPLRQTLENRNLHSMIFWGPPGVGKTTLANVISNTVEARFEVLSAVQAGVKDIKLVAEKAKQAQAYGEVTVLFVDEVHRFNKAQQDAFLPYVENGTFIFIGATTENPSFELNSALLSRARVYVLKSFTDDDFRQLWQRARSLDERIAKLAIENDALDGLIQFADGDARRFLNFLEIAIDFFTSEAVITLDDIRELLSHQPRRFDKGGENFYDQISAFHKSVRGSSPDGALYWLCRMLDGGIDPLYLARRMVRIASEDIGNADPRALTLALNAWDSQERLGSPEGELSLAQAAVYLASAPKSNAVYTAFNAMMSAVRSSHSAEVPLHLRNAPTSLMKDLDYGRDYRYAHDEPHAYAAGEVYLPDHMQGQRFYDPVDRGLEQKIRQKLDFLKQLDEQAQNQEDEGHHHHHH | soluble |
| MSLLRLTSVVGIGHAEDPNPRFRKQMEDVCVMIDKLGNSHSTGFFAIYDGHGGQEAARIAGDNLHRYLLEDLLNQKLEHLLEADPLANQSMSQPTCSQAGSKLSSDGHNLSGNPSGVPKDSQLTNATMSSGVRTGTFSKDKISPSAKVRVPVPPNEPSKLGAIIRKAIQRTDDVLRQKNVLYVGCTALIALVTKYTIEFASVGDSRAVISINGTAYRCTEDHKASDKLEIDRIKSLGGTVIFGRVNGFISVSRALGDHCIKNLVTCDPFLRSYPRYPTPDSVGVTASSTNELDEFIIMACDGVWDVVTDQQSVDTVRKCLKETGSPQKAAFELKNLAIRSGTQDNVSVLVLLLREINKWEGHHHHHH | soluble |
| MSLLSIIPISAGIPLTETEPKQKWLEEWSKQLFVKVSIDSEYGWGEVLPAAFNSPALYADIVKRLEPSLNGMEISEPGIIWEKLRKLTFSGGYGPVIGAISGVDIALWDLKAKLSKLYLGDIFGKNEQKIARYASLSRYANYEAVIRASKNIVESGFKAIKLHQTKDDTLESVKRFREEIGYGVDLMVDLNCAMNIDEAIKFANSVQRYELKWVEEPIWPPDDLASLKKINDIVPVAAGENFFDFFKFEDAVHLEALTYYQPDVTKVGGLTPTLKILDLLKKNHEQVAFHNRPHNGWIGIFASIAAARMNGVDALIETPPNGVPSQYFRYNAMITSEVIAPNGVGLSIEPIEPLPQPKDEKILIFHDEGHHHHHH | not soluble |
| MSLMIVYKGEKMQFIRVNTLKINPEVLKKRLENKGVVLEKTFLDYAFEVKKSPFSIGSTPEYLFGYYMPQSISSMIPPIVLNPREDDFILDMCAAPGGKTTHLAQLMKNKGTIVAVEISKTRTKALKSNINRMGVLNTIIINADMRKYKDYLLKNEIFFDKILLDAPCSGNIIKDKNRNVSEEDIKYCSLRQKELIDIGIDLLKKDGELVYSTCSMEVEENEEVIKYILQKRNDVELIIIKANEFKGINIKEGYIKGTLRVFPPNEPFFIAKLREGGSHHHHHH | soluble |
